B1: Reference ADC-2 (Sacituzumab-Deruxtecan) (antibody, human IgG1, kappa, V domains shown)
VH: QVQLQQSGSELKKPGASVKVSCKASGYTFTNYGMNWVKQAPGQGLKWMGWINTYTGEPTYTDDFKGRFAFSLDTSVSTAYLQISSLKADDTAVYFCARGGFGSSYWYFDVWGQGSLVTVSS
VL: DIQLTQSPSSLSASVGDRVSITCKASQDVSIAVAWYQQKPGKAPKLLIYSASYRYTGVPDRFSGSGSGTDFTLTISSLQPEDFAVYYCQQHYITPLTFGAGTKVEIKR
modifications: Deruxtecan linker-drug conjugated after TCEP reduction of disulfide bonds (cysteine positions not stated); mean n=4.18 per antibody
B2: ADC-II-11-a (antibody, human IgG1, kappa, V domains shown)
VH: B1 VH
VL: B1 VL
modifications: linker-drug L-II-3 conjugated after TCEP reduction of disulfide bonds (cysteine positions not stated); mean n=3.73 per antibody
B3: ADC-III-28 (antibody, human IgG1, kappa, V domains shown)
VH: B1 VH
VL: B1 VL
modifications: linker-drug L-III-30 conjugated after TCEP reduction of disulfide bonds (cysteine positions not stated); mean n=3.67 per antibody

Molecular target: T1, Trop2 (UniProt P09758 27-323, limits assumed)
T1 sequence (looked up): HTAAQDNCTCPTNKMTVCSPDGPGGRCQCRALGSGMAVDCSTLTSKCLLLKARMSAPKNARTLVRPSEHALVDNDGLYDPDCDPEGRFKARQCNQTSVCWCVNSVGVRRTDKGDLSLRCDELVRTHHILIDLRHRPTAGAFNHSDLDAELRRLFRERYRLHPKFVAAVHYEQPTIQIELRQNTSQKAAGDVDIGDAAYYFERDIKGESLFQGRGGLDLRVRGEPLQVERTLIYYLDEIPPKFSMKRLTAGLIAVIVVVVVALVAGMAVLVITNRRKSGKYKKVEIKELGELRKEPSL
Assay: cell-based or functional assay

In order of falling “IC50 (nM), inhibition of in vitro proliferation of Colo205 cells (CTG, 6 days)” value:
1. B1  152 nM
2. B2  121 nM
3. B3  77.6 nM

In order of rising “IC50 (nM), inhibition of in vitro proliferation of SK-OV-3 cells (CTG, 6 days)” value:
1. B3  394 nM
2. B2  448 nM
3. B1  501 nM

— patent publication US20230212182A1 (DUALITY BIOLOGICS SUZHOU, published 2023)
